Measured values reported in publication PMC4707517.

Assays:
[1] = target: H1FL (H1 11-193 in Table 1, i.e. residues 1-193) S19C (mouse) (UniProt P10922); experiment: fluorescence (de)quenching; details: 150 mM KCl (20 mM KCl for four-way junction and 4WJDNA), room temperature pre-incubation for competition, buffer and pH not given (HI-FI assay, ref 23)
[2] = target: H1 1-96 (delta97) S19C (mouse) (UniProt P10922); experiment: FRET competition; details: 150 mM KCl (20 mM KCl for four-way junction and 4WJDNA); room temperature pre-incubation for competition; buffer and pH not given (HI-FI assay, ref 23)
[3] = target: H1 1-121 (delta72) S19C (mouse) (UniProt P10922); experiment: FRET competition; details: 150 mM KCl (20 mM KCl for four-way junction and 4WJDNA); room temperature pre-incubation for competition; buffer and pH not given (HI-FI assay, ref 23)
[4] = target: H1FL (H1 11-193 in Table 1, i.e. residues 1-193) S19C (mouse) (UniProt P10922); experiment: FRET competition; details: 150 mM KCl (20 mM KCl for four-way junction and 4WJDNA), room temperature pre-incubation for competition, buffer and pH not given (HI-FI assay, ref 23)
[5] = target: H1 1-96 (delta97) S19C (mouse) (UniProt P10922); experiment: FRET; details: internal amino-C6-dT; 150 mM KCl (20 mM KCl for four-way junction and 4WJDNA); room temperature pre-incubation for competition; buffer and pH not given (HI-FI assay, ref 23)
[6] = target: H1FL (H1 11-193 in Table 1, i.e. residues 1-193) S19C (mouse) (UniProt P10922); experiment: FRET; details: internal amino-C6-dT; 150 mM KCl (20 mM KCl for four-way junction and 4WJDNA); room temperature pre-incubation for competition; buffer and pH not given (HI-FI assay, ref 23)
[7] = target: H1 1-121 (delta72) S19C (mouse) (UniProt P10922); experiment: FRET; details: internal amino-C6-dT; 150 mM KCl (20 mM KCl for four-way junction and 4WJDNA); room temperature pre-incubation for competition; buffer and pH not given (HI-FI assay, ref 23)
[8] = target: H1 1-121 (delta72) S19C (mouse) (UniProt P10922); experiment: fluorescence (de)quenching; details: 150 mM KCl (20 mM KCl for four-way junction and 4WJDNA); room temperature pre-incubation for competition; buffer and pH not given (HI-FI assay, ref 23)
[9] = histone variant H2A.Z, mouse histones

Substance 4WJ15 four-way junction has a Kd [1] of 0.035 nM.
With 4WJDNA linear 30 bp the Kd [1] was 3.75 nM.
“AGGCCTGAGAATCCGGTGCCGAGGCCGCTCAATTGGTCGTAGACAGCTCTAGCACCGCTTAAACGCACGTACGCGCTGTCCCCCGCGTTTTAACCGCCAAGGGGATTACTCCCTAGTCTCCAGGCACGTGTCAGATATATACATCCAGGCCTTGTGTC (double strand) [A1/10 nucleosome]” showed a Kd [2] of 140 nM and a Kd [3] of 43.8 nM.
With “ATCCCTATACGCGGCCGCCCTGGAGAATCCCGGTGCCGAGGCCGCTCAATTGGTCGTAGACAGCTCTAGCACCGCTTAAACGCACGTACGCGCTGTCCCCCGCGTTTTAACCGCCAAGGGGATTACTCCCTAGTCTCCAGGCACGTGTCAGATATATACATCCGAT (double strand) [A18/1 nucleosome]” the Kd [2] was 208 nM, the Kd [4] was 0.135 nM and the Kd [3] was 8.08 nM.
“ATCTAATACTAGGACCCTATACGCGGCCGCATCGGAGAATCCCGGTGCCGAGGCCGCTCAATTGGTCGTAGACAGCTCTAGCACCGCTTAAACGCACGTACGCGCTGTCCCCCGCGTTTTAACCGCCAAGGGGATTACTCCCTAGTCTCCAGGCACGTGTCAGATATATACATCGATTGCATGTGGATCCGAATTCATATTAATGAT (double strand) [S30/30 nucleosome]” gave a Kd [1] of 0.039 nM, a Kd [2] of 124 nM and a Kd [4] of 0.0177 nM. It also gave an IC50 ([4]; competitor of S31/30 (10 nM), 1 nM H1) of 3.7 nM and a Kd [3] of 1.85 nM.
Substance “ATCTAATACTAGGACCCTATACGCGGCCGCATCGGAGAATCCCGGTGCCGAGGCCGCTCAATTGGTCGTAGACAGCTCTAGCACCGCTTAAACGCACGTACGCGCTGTCCCCCGCGTTTTAACCGCCAAGGGGATTACTCCCTAGTCTCCAGGCACGTGTCAGATATATACATCGATTGCATGTGGATCCGAATTCATATTAATGAT (double strand) [S30/30-H2A.Z nucleosome]” has a Kd [1, 9] of 0.051 nM.
Substance “CGAGCCAGGCCTGAGAATCCGGTGCCGAGGCCGCTCAATTGGTCGTAGACAGCTCTAGCACCGCTTAAACGCACGTACGCGCTGTCCCCCGCGTTTTAACCGCCAAGGGGATTACTCCCTAGTCTCCAGGCACGTGTCAGATATATACATCCAGGCCTTGTGTCG (double strand) [S7/11 nucleosome]” has a Kd [2] of 73.6 nM, a Kd [4] of 1.73 nM and a Kd [3] of 3.26 nM.
In the case of “CGCATCGGAGAATCCCGGTGCCGAGGCCGCTCAATTGGTCGTAGACAGCTCTAGCACCGCTTAAACGCACGTACGCGCTGTCCCCCGCGTTTTAACCGCCAAGGGGATTACTCCCTAGTCTCCAGGCACGTGTCAGATATATACATCGATTGCATGTGGATCCGAATTCATATTAATGAT (double strand) [A3/30 nucleosome]”, the Kd [5] is reported as 248 nM, the Kd [6] is reported as 0.112 nM and the Kd [7] is reported as 10.4 nM.
With “GATCTAATACTAGGACCCTATACGCGGCCGCATCGGAGAATCCCGGTGCCGAGGCCGCTCAATTGGTCGTAGACAGCTCTAGCACCGCTTAAACGCACGTACGCGCTGTCCCCCGCGTTTTAACCGCCAAGGGGATTACTCCCTAGTCTCCAGGCACGTGTCAGATATATACATCGATTGCATGTGGATCCGAATTCATATTAATGAT (double strand) [S31/30 nucleosome]” the Kd [5] was 86.3 nM, the Kd [6] was 0.0484 nM and the Kd [7] was 0.983 nM.
LE-Tri trinucleosome showed a Kd ([1]; stoichiometry 3 H1 per trimer) of 0.046 nM and a Kd [8] of 0.047 nM.
NLE-Tri trinucleosome showed a Kd ([1]; stoichiometry 1 H1 per trimer) of 0.042 nM and a Kd [8] of 0.0638 nM.
NLE-Tri-H2A.Z trinucleosome gave a Kd [1, 9] of 0.023 nM.
“TCGGGATACGCGGCCGCCCTGGAGAATCCCGGTGCCGAGGCCGCTCAATTGGTCGTAGACAGCTCTAGCACCGCTTAAACGCACGTACGCGCTGTCCCCCGCGTTTTAACCGCCAAGGGGATTACTCCCTAGTCTCCAGGCACGTGTCAGATATATACATCCTGTGCATGTATTGAC (double strand) [S17/13 nucleosome]” gave a Kd [2] of 26.5 nM, a Kd [4] of 0.23 nM and a Kd [3] of 0.947 nM.
